Results published in the supplement of paper PMC9732359.
± gives the uncertainty stated by the source.

Experiment: protein stability index of a GFP-peptide fusion (yeast GPS) (PSI 1-4); higher = more stable; sorted into four equal gates, so the index is relative within each strain
In short: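 Yeast carrying a pooled library were grown to mid-log phase in leucine-free medium. Each library plasmid expresses Cherry and has a tiled 17-residue yeast protein peptide fused downstream of GFP. Cells were sorted into four equal gates by GFP/Cherry ratio, and plasmids from each gate were PCR-amplified, Illumina-sequenced and assigned to strains by barcode. Summing, across gates, the read frequency times the gate number gave each peptide's protein stability index.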

Row | Sequence | protein stability index (doa10∆) | protein stability index (pdr5∆) | protein stability index (san1∆) | protein stability index (ubr1∆)
1 | IIELENINAKMETRINI [YIL149C/MLP2] | 3.06 ± 0.091 | 2.63 ± 0.11 | 2.5 ± 0.069 | 2.62 ± 0.063
2 | EQKLVDLLKFENISLAE [BRR2] | 2.65 ± 0.065 | 2.93 ± 0.066 | 2.71 ± 0.049 | 2.58 ± 0.055
3 | FGYPETIANSIILHFAN [YMR153W/NUP53] | 2.05 ± 0.062 | 2.23 ± 0.067 | 1.88 ± 0.09 | 2.15 ± 0.066
4 | VFESLEINNLIQLPASL [ARP9] | 1.61 ± 0.08 | 1.88 ± 0.05 | 1.83 ± 0.077 | 1.6 ± 0.055
5 | LVLLNGRLRNKSHKQTI [RPP1] | 2.65 ± 0.088 | 2.85 ± 0.059 | 2.98 ± 0.047 | 2.97 ± 0.061
6 | VCIRPSVMMQDSPASNE [RPO31] | 1.63 ± 0.085 | 2.08 ± 0.1 | 1.94 ± 0.11 | 2.06 ± 0.099
7 | SVNFFVSLLKKNWQNVG [RPL1A] | 1.19 ± 0.07 | 1.32 ± 0.063 | 1.25 ± 0.14 | 1.46 ± 0.063
8 | DRKDQDDRDHFGKKRLD [RPB2] | 3.27 ± 0.14 | 3.04 ± 0.12 | 3.28 ± 0.13 | 3.39 ± 0.086
9 | DISLKADLERFFLSIYF [YJL039C/NUP192] | 3.24 ± 0.13 | 2.79 ± 0.092 | 2.96 ± 0.099 | 2.94 ± 0.044
10 | AENSHTQPKATSTGTTI [PUP1] | 3.17 ± 0.073 | 3.1 ± 0.071 | 3.07 ± 0.06 | 3.26 ± 0.057
11 | QREEAKKVVKKAFEERH [RPL27A] | – | 3.78 ± 0.2 | 2.63 ± 0.29 | –
12 | ARKSAPSTGGVKKPHRY [HHT1] | 1.66 ± 0.065 | 1.87 ± 0.052 | 2.03 ± 0.075 | 2.03 ± 0.063
13 | AELFNNDIKLFVDDTNV [PRP8] | 2.17 ± 0.065 | 2.09 ± 0.053 | 2.46 ± 0.054 | 2.13 ± 0.034
14 | QLRKEIQLLDENVGTRL [MED11] | – | 3.09 ± 0.19 | 3.57 ± 0.11 | –
15 | GYLITPPKHTELLLTTL [SSN2] | 1.85 ± 0.062 | 1.86 ± 0.052 | 1.54 ± 0.11 | 1.54 ± 0.031
16 | TQGGNVNLDNTAVGKAA [RPT5] | 3.11 ± 0.053 | 3.28 ± 0.052 | 3.277 ± 0.032 | 3.17 ± 0.038
17 | NAKDIQIPVYDTFDGSD [FAS1] | 2.47 ± 0.078 | 2.56 ± 0.07 | 2.07 ± 0.052 | 2.29 ± 0.064
18 | MACNFQFPEIAYPGKLI [CSL4] | 2.88 ± 0.12 | 2.9 ± 0.12 | 2.76 ± 0.12 | 2.62 ± 0.16
19 | RSEDPAGLGKTNELWAR [YGR119C/NUP57] | 2.82 ± 0.068 | 2.24 ± 0.077 | 3.25 ± 0.075 | 3.4 ± 0.088
20 | VVDVALKYPELSIKNSF [NUT1] | 3.04 ± 0.071 | 2.94 ± 0.056 | 2.97 ± 0.059 | 2.77 ± 0.047
21 | GKPHFSLLGGFDENIAR [PCI8] | 3.18 ± 0.11 | 2.91 ± 0.12 | 3.25 ± 0.095 | 2.96 ± 0.076
22 | NYNRIAKICALLFFNFS [NUT1] | 1.89 ± 0.048 | 1.8 ± 0.047 | 1.37 ± 0.082 | 1.61 ± 0.031
23 | LKSLYSFFNISPDAPKE [SIN4] | 2.32 ± 0.093 | 1.38 ± 0.048 | 1.43 ± 0.079 | 1.84 ± 0.049
24 | EEGEFIIDLYSLPEGLL [TAF14] | 3.4 ± 0.088 | 3.54 ± 0.085 | 3.57 ± 0.058 | 3.52 ± 0.063
25 | FKIWHGEINKICMESLF [PCI8] | 1.83 ± 0.1 | 1.46 ± 0.056 | 1.42 ± 0.1 | 1.87 ± 0.058
26 | SGQLNFEIDGDVIHFED [PCI8] | 2.94 ± 0.091 | 2.83 ± 0.067 | 2.53 ± 0.075 | 2.83 ± 0.043
27 | NLDYLFELIELVTPKSF [NUT1] | 2.85 ± 0.057 | 3 ± 0.082 | 3.09 ± 0.062 | 3.31 ± 0.063
28 | KDSTAGKKVFETQYFWK [YJR042W/NUP85] | – | – | 3.03 ± 0.21 | –

Row | Sequence | protein stability index (doa10∆) | protein stability index (pdr5∆) | protein stability index (san1∆) | protein stability index (ubr1∆)
29 | IEKLTDGHLRAPLKHGV [BRR2] | 1.72 ± 0.053 | 2.86 ± 0.058 | 3.01 ± 0.051 | 2.04 ± 0.065
30 | IVEEDLEPFEASKETAE [FAS2] | 3.42 ± 0.18 | 3.21 ± 0.11 | 3.1 ± 0.087 | 3.25 ± 0.089
31 | RLTAKRLIEHDPVEGNL [SRP14] | 2 ± 0.066 | 2.29 ± 0.052 | 1.93 ± 0.1 | 2.16 ± 0.045
32 | QRRCLHCGALNGVVKKA [RPO31] | 2.35 ± 0.13 | 2.54 ± 0.13 | 2.41 ± 0.12 | 2.59 ± 0.11
33 | RATPATLTELKDALSNS [SRB2] | 3.11 ± 0.12 | 3.11 ± 0.11 | 3.15 ± 0.12 | 3.42 ± 0.1
34 | NELMRWPIVQKTYEPVL [RPN5] | 2.25 ± 0.06 | 2.39 ± 0.057 | 2.24 ± 0.075 | 1.83 ± 0.037
35 | LLLKKLDNFQKSVEKTM [SMC3] | 2.54 ± 0.2 | 2.74 ± 0.23 | 2.44 ± 0.24 | 2.88 ± 0.17
36 | DVTPISMFGSDQKTGRA [RPN4] | 2.93 ± 0.069 | 3.11 ± 0.094 | 3.07 ± 0.066 | 2.95 ± 0.069
37 | LRKSRETVKLPRVSNQS [RRI2] | – | 3.42 ± 0.22 | – | –
38 | TRKAMLDPLEVHMLDFP [PRP8] | 2.84 ± 0.061 | 2.94 ± 0.06 | 3.03 ± 0.054 | 3 ± 0.048
39 | RGNTKIHSMNENPTPEK [SIR3] | 3.11 ± 0.085 | 3.15 ± 0.11 | 3.08 ± 0.056 | 3.31 ± 0.067
40 | NGASVPINLHPSKLVIT [RPL26A] | 1.75 ± 0.058 | 1.83 ± 0.06 | 1.96 ± 0.067 | 1.41 ± 0.05
41 | FIKVVNYNHLLPTRYTL [RPL27A] | 2.34 ± 0.06 | 2.25 ± 0.076 | 2.07 ± 0.098 | 2.18 ± 0.067
42 | EIVDTYQEDIFVSESPS [ISW2] | 2.83 ± 0.093 | 2.8 ± 0.11 | 3.35 ± 0.092 | 2.6 ± 0.07
43 | YPREEEEDYNEFNSIDR [PRP8] | 3.32 ± 0.09 | 3.24 ± 0.1 | 3.1 ± 0.068 | 3.27 ± 0.08
44 | KSGIPEFTPADPNLSFE [SSN2] | 2.96 ± 0.091 | 3.04 ± 0.055 | 2.78 ± 0.054 | 3.25 ± 0.062
45 | DQAELPNNASSHISASA [SNF2] | 1.79 ± 0.085 | 2.35 ± 0.068 | 2.1 ± 0.13 | 2.35 ± 0.063
46 | GVIIKVEESGEHVILGN [SNU114] | 2.65 ± 0.12 | 2.81 ± 0.086 | 3.2 ± 0.14 | 3 ± 0.073
47 | RAVKEIKKFAKLHMGTD [RPL31A] | 1.7 ± 0.036 | 1.32 ± 0.041 | 1.23 ± 0.061 | 1.58 ± 0.035
48 | NYLKYLEYWCNPPYSQC [SOH1] | 2.14 ± 0.052 | 2.25 ± 0.048 | 2.18 ± 0.063 | 2.28 ± 0.036
49 | TQNSRHYMVHEALNLLK [LIN1] | 3.03 ± 0.086 | 2.98 ± 0.075 | 2.76 ± 0.077 | 3.07 ± 0.064
50 | ERNNIGEICKNYELEKI [YDL116W/NUP84] | 2.91 ± 0.14 | 2.82 ± 0.095 | 2.94 ± 0.09 | 2.62 ± 0.059
51 | SEINEILARNDEEMAVL [SNF2] | 2.88 ± 0.18 | 2.64 ± 0.21 | 3 ± 0.17 | 3.16 ± 0.099
52 | PEIDNLDDLVVLKKKNI [RRP6] | 2.37 ± 0.067 | 2.15 ± 0.052 | 2.59 ± 0.089 | 2.79 ± 0.066
53 | NGSSDASSLRFGNSLSN [YDL088C/ASM4] | 2.77 ± 0.071 | 2.76 ± 0.075 | 2.69 ± 0.05 | 2.56 ± 0.1
54 | ENIENEEYVINLLKVSV [ECM29] | 1.96 ± 0.12 | 3.23 ± 0.19 | – | 3.1 ± 0.11
55 | MKLKLMIVYYKDAISFI [YCS4] | 1.82 ± 0.053 | 1.49 ± 0.049 | 1.8 ± 0.091 | 1.73 ± 0.042
